Laboratory results as given in patent publication US20250051464A1 (IMMUNOME, published 2025).

Key:
[1] = target: T1, EphA4_ECD (aa 23-546), full ECD, displayed on yeast (human, UniProt P54764 23-546); test: yeast surface display, flow cytometry titration of AB-008873
T1 construct: also called EphA4 full ECD; not shown: Aga2 fusion partner followed by an internal HA tag; C-terminal Myc tag
Protocol: Yeast cells were cultured in SDCAA (Teknova, S0543) and induced with SGCAA (Teknova, 50542). Cells were stained with pairs of primary and secondary antibodies. […] Chicken IgY anti-cMyc (Life technologies A21281) and Goat anti Chicken IgY FITC (Life technologies A11039) were used to assess expression levels. The analysis was run on the iQue3 flow cytometer. […] The FN2 domain of EphA2 alone is sufficient to mediate binding and expresses at high levels. […] FIG. 6. […] FN2 domain alone also has high relative expression. […] Swapping the FN1 domain from EphA4 into EphA2 enables binding of the epitope (diamond). Binding is lost when the FN2 domain from EphA4 is swapped into EphA2.

[2] = target: EphA4 (homologous receptor, screening at Integral Molecular) (UniProt P54764 20-986, limits assumed); test: screening at Integral Molecular
[3] = target: T2, mouse EphA2 on mouse tumor cells (CT26, EMT6, MC38, RENCA) (mouse, UniProt Q03145 26-977); test: flow cytometry, surface binding on CT26 cells (in vitro)
T2 construct: whole, on cells
Protocol: Surface binding of the antibodies to in vitro grown cell lines was assessed by flow cytometry. Tumor cells were detached from their culture plate using Versene and counted. Cells were staining in BSA-containing buffer with primary antibody for 30 minutes at 4° C. with shaking. Following, cells were washed and stained with secondary PE-labeled antibody for 30 minutes at 4° C. with shaking. Before analysis on an Intellicyt iQue3 scanner, cells were counterstained with DAPI. MedFI values from live, single cells was expressed as fold over isotype control.

FcGR1 = target: T3, FcGR1 (human, UniProt P12314 16-374); test: flow cytometry, 6,000 human membrane proteins expressed on the surface of HEK293 cells
T3 construct: whole, on cells; An Fc receptor
T3 sequence (P12314 16-374): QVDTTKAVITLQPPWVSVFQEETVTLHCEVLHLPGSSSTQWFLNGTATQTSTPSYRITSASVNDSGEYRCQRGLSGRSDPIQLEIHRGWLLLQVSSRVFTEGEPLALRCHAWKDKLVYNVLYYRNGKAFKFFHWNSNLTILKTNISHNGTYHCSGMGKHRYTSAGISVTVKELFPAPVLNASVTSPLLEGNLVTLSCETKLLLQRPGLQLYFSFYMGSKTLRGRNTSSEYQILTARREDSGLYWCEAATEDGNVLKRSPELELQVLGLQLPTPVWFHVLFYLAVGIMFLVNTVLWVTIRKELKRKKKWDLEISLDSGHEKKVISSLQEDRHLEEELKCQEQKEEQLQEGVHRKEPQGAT

T2 sequence (Q03145 26-977): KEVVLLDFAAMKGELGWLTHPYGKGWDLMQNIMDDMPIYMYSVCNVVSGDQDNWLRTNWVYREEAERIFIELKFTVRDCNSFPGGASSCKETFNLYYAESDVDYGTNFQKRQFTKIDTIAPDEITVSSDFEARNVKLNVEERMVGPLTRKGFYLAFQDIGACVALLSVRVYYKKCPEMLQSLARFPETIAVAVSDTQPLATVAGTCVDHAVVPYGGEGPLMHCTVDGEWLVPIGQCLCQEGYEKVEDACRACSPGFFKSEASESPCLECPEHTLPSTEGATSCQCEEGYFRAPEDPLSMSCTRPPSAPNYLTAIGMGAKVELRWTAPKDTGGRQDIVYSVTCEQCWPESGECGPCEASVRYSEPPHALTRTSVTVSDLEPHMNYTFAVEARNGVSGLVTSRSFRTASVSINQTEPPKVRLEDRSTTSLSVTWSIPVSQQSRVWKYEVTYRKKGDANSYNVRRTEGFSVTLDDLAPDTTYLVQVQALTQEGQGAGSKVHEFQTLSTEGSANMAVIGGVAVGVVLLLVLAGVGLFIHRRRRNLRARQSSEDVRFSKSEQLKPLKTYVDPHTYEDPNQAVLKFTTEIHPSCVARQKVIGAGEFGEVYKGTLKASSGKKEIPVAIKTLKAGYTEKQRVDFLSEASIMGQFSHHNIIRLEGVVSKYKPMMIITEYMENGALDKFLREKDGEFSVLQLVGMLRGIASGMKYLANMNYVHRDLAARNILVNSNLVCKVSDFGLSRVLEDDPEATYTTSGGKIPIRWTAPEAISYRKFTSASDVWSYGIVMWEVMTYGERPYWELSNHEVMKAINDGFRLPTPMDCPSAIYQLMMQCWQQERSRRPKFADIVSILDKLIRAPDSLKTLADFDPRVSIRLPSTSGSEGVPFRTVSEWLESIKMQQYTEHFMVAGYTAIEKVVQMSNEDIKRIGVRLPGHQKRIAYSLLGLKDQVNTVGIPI
T1 sequence (P54764 23-546): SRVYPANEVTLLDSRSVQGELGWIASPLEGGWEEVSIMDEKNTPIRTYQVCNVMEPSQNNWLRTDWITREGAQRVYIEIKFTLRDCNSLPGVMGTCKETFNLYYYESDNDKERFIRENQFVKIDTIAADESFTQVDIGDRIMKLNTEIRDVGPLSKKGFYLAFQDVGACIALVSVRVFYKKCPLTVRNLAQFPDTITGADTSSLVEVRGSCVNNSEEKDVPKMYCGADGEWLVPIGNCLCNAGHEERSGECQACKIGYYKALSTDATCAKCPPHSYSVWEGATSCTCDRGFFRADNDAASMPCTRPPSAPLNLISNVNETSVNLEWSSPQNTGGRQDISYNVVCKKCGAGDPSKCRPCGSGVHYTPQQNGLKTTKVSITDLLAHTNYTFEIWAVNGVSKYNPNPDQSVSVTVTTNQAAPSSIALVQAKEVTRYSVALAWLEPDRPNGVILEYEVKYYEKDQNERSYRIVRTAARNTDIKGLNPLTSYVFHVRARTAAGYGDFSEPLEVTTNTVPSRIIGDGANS
Sequence of EphA4 (homologous receptor, screening at Integral Molecular) (P54764 20-986 limits assumed): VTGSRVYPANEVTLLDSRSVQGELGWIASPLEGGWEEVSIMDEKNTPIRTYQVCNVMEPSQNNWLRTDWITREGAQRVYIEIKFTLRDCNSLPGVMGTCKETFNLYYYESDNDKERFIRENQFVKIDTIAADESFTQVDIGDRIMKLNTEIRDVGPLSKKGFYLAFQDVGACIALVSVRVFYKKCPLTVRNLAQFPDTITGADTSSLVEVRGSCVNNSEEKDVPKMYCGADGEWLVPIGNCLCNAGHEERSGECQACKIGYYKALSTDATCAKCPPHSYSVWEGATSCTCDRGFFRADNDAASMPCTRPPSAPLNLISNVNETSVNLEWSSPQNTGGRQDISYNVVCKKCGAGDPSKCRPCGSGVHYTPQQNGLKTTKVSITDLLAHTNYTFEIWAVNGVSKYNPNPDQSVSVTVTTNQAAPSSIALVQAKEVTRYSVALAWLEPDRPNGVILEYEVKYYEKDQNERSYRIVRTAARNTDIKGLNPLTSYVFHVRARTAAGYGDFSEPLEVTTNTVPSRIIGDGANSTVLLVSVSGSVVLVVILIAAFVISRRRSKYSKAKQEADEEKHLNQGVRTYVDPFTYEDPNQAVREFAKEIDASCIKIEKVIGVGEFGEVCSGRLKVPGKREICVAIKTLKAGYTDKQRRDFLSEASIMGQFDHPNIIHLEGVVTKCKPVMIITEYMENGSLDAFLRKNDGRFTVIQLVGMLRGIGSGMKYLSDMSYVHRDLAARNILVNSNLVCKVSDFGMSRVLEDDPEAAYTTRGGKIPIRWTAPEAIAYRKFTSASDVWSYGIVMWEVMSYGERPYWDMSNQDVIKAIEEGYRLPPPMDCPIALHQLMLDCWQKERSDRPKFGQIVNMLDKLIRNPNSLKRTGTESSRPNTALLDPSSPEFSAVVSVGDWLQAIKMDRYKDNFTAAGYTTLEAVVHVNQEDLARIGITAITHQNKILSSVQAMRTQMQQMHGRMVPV

- binding result [1]: no binding (tested: about 300 nM)
- binding result [2]: no binding
- fold over isotype control (MedFI) [3]: 16 fold
- binding result (FcGR1): binds
B1: AB-008873 (mouse IgG2a format) (antibody)
heavy: QVQLQQWGAGLLKPSETLSLTCAVYGGSFSDYYWSWIRQPPGKGLEWIGEVNHRGSINYNNYNPSLKSRVTISVDPSKNQFSLKLTSVTAADTAVYYCAKPLRPHCTNGVCYSGDAFDIWGQGTMVTVASAKTTAPSVYPLAPVCGDTTGSSVTLGCLVKGYFPEPVTLTWNSGSLSSGVHTFPAVLQSDLYTLSSSVTVTSSTWPSQSITCNVAHPASSTKVDKKIEPRGPTIKPCPPCKCPAPNLLGGPSVFIFPPKIKDVLMISLSPIVTCVVVDVSEDDPDVQISWFVNNVEVHTAQTQTHREDYNSTLRVVSALPIQHQDWMSGKEFKCKVNNKDLPAPIERTISKPKGSVRAPQVYVLPPPEEEMTKKQVTLTCMVTDFMPEDIYVEWTNNGKTELNYKNTEPVLDSDGSYFMYSKLRVEKKNWVERNSYSCSVVHEGLHNHHTTKSFSRTPG
light: SYVLTQPPSVSVAPGQTARITCGGNNIGSKNVHWYQQKPGQAPVLVVYDDSDRPSGIPEQFSGSNSGNTATLTISRVEAGDEADYYCQVWDSSSDHLVFGGGTKLTVLGQPKSSPSVTLFPPSSEELETNKATLVCTITDFYPGVVTVDWKVDGTPVTQGMETTQPSKQSNNKYMASSYLTLTARAWERHSSYSCQVTHEGHTVEKSLSRADCS
